Molecular target: PD-1 protein on the surface of Jurkat PD-1 NFAT line cells (UniProt Q15116)
Assay: cell-based or functional assay

Chain of UniProt Q15116 (Q15116 25-288 limits assumed): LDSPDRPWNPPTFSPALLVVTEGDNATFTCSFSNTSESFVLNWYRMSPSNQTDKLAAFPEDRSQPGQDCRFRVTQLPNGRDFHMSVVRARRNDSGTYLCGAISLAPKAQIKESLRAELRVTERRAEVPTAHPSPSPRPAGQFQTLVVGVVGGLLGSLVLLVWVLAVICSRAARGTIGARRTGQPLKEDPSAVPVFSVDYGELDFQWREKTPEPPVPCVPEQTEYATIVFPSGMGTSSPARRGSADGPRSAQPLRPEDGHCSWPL

B1: prolgolimab (antibody, from a related filing, V domains shown)
VH: QVQLVQSGGGLVQPGGSLRLSCAASGFTFSSYWMYWVRQVPGKGLEWVSAIDTGGGRTYYADSVKGRFAISRVNAKNTMYLQMNSLRAEDTAVYYCARDEGGGTGWGVLKDWPYGLDAWGQGTLVTVSS
VL: QPVLTQPLSVSVALGQTARITCGGNNIGSKNVHWYQQKPGQAPVLVIYRDSNRPSGIPERFSGSNSGNTATLTISRAQAGDEADYYCQVWDSSTAVFGTGTKLTVLQ
Relative specific activity, % (ED50 standard / ED50 test, Jurkat PD-1 NFAT luminescence); 20 mg/ml, histidine, trehalose 100 mg/ml, 37 C, initial control: 105%
Relative specific activity, %; 20 mg/ml, acetate pH 5.0, trehalose 80 mg/ml, 37 C, 2 weeks: 103%
Relative specific activity, %; 20 mg/ml, acetate pH 5.0, trehalose 80 mg/ml, 37 C, 4 weeks: 94%
Relative specific activity, %; 20 mg/ml, acetate pH 5.0, trehalose 80 mg/ml, 37 C, initial control: 100%
Relative specific activity, %; 20 mg/ml, acetate pH 5.0, trehalose 100 mg/ml, 37 C, 2 weeks: 93%
Relative specific activity, %; 20 mg/ml, acetate pH 5.0, trehalose 100 mg/ml, 37 C, 4 weeks: 99%
Relative specific activity, %; 20 mg/ml, acetate pH 5.0, trehalose 100 mg/ml, 37 C, initial control: 89%
Relative specific activity, %; 20 mg/ml, histidine, trehalose 80 mg/ml, 37 C, 2 weeks: 103%
Relative specific activity, %; 20 mg/ml, histidine, trehalose 80 mg/ml, 37 C, 4 weeks: 94%
Relative specific activity, %; 20 mg/ml, histidine, trehalose 80 mg/ml, 37 C, initial control: 100%
Relative specific activity, %; 20 mg/ml, histidine, trehalose 100 mg/ml, 37 C, 2 weeks: 97%
Relative specific activity, %; 20 mg/ml, histidine, trehalose 100 mg/ml, 37 C, 4 weeks: 110%
Relative specific activity, %; 100 mg/ml, acetate pH 5.0, trehalose 80 mg/ml, 37 C, 2 weeks: 94%
Relative specific activity, %; 100 mg/ml, acetate pH 5.0, trehalose 80 mg/ml, 37 C, 4 weeks: 105%
Relative specific activity, %; 100 mg/ml, acetate pH 5.0, trehalose 80 mg/ml, 37 C, initial control: 89%
Relative specific activity, %; 100 mg/ml, acetate pH 5.0, trehalose 100 mg/ml, 37 C, 2 weeks: 112%
Relative specific activity, %; 100 mg/ml, acetate pH 5.0, trehalose 100 mg/ml, 37 C, 4 weeks: 97%
Relative specific activity, %; 100 mg/ml, acetate pH 5.0, trehalose 100 mg/ml, 37 C, initial control: 107%
Relative specific activity, %; 100 mg/ml, histidine, trehalose 80 mg/ml, 37 C, 2 weeks: 94%
Relative specific activity, %; 100 mg/ml, histidine, trehalose 80 mg/ml, 37 C, 4 weeks: 105%
Relative specific activity, %; 100 mg/ml, histidine, trehalose 80 mg/ml, 37 C, initial control: 89%
Relative specific activity, %; 100 mg/ml, histidine, trehalose 100 mg/ml, 37 C, 2 weeks: 104%
Relative specific activity, %; 100 mg/ml, histidine, trehalose 100 mg/ml, 37 C, 4 weeks: 97%
Relative specific activity, %; 100 mg/ml, histidine, trehalose 100 mg/ml, 37 C, initial control: 101%
Relative specific activity, %; 150 mg/ml, acetate pH 5.0, trehalose 80 mg/ml, 37 C, 2 weeks: 99%
Relative specific activity, %; 150 mg/ml, acetate pH 5.0, trehalose 80 mg/ml, 37 C, 4 weeks: 108%
Relative specific activity, %; 150 mg/ml, acetate pH 5.0, trehalose 80 mg/ml, 37 C, initial control: 91%
Relative specific activity, %; 150 mg/ml, acetate pH 5.0, trehalose 100 mg/ml, 37 C, 2 weeks: 106%
Relative specific activity, %; 150 mg/ml, acetate pH 5.0, trehalose 100 mg/ml, 37 C, 4 weeks: 103%
Relative specific activity, %; 150 mg/ml, acetate pH 5.0, trehalose 100 mg/ml, 37 C, initial control: 92%
Relative specific activity, %; 150 mg/ml, histidine, trehalose 80 mg/ml, 37 C, 2 weeks: 99%
Relative specific activity, %; 150 mg/ml, histidine, trehalose 80 mg/ml, 37 C, 4 weeks: 108%
Relative specific activity, %; 150 mg/ml, histidine, trehalose 80 mg/ml, 37 C, initial control: 91%
Relative specific activity, %; 150 mg/ml, histidine, trehalose 100 mg/ml, 37 C, 2 weeks: 100%
Relative specific activity, %; 150 mg/ml, histidine, trehalose 100 mg/ml, 37 C, 4 weeks: 105%
Relative specific activity, %; 150 mg/ml, histidine, trehalose 100 mg/ml, 37 C, initial control: 97%

From US20250262153A1
